Assay results taken from patent US10894811B2, “Peptide inhibitors of calcium channels” (The University of North Carolina at Chapel Hill, priority 2016, dated 2021).
Entries after “also recorded” stand apart in the source; their conditions may differ.

Tests used:
Orai1 [1] = biological target: T1, Orai1 (Homo sapiens, UniProt Q96D31); assay: Surface biotinylation / immunoblot of plasma membrane Orai1; format: cell-based; details: ASMC, after 4 h of SPLUNC1 exposure
Experimental: Surface biotinylation: hASMCs were treated with or without SPLUNC1 for 4 h. Cells were then washed with prechilled PBS^++ (phosphate buffered saline supplemented with 1 mM CaCl2 and 1 mM MgCl2), and then labeled with 0.5 mg/ml sulfo-NHS-biotin (Thermo) in borate buffer (85 mM NaCl, 4 mM KCl, 15 mM Na2B4O7, pH 9.0) while tumbling gently for 30 min on ice. hASMCs were incubated in PBS^++ buffer supplemented with 10% FBS for 20 min at 4° C. to quench free biotin. Cells were washed again three times with chilled PBS^++ and proteins were extracted as previously using lysis buffer (0.4% sodium deoxycholate, 1% NP-40, 50 mM EGTA, 10 mM Tris-Cl, pH 7.4) supplemented with 1×PIC. Total inputs were taken from whole cell samples representing 4% of total protein. Solubilized proteins were incubated with 100 μl of neutravidin beads (Pierce) overnight while rotating at 4° C. Samples were washed three times with lysis buffer. Bead-bound proteins were then eluted and SDS-polyacrylamide gels, and subjected to immunoblot analysis.

[2] = test system: myosin light chain (MLC) phosphorylation; assay: Immunoblot of phosphorylated myosin light chain in ASMCs; format: cell-based, human; details: basal and Ach-induced; pre-treatment with SPLUNC1
Experimental: Antibodies, immunoprecipitation, and immunoblot analysis: Rabbit anti-Orai1, anti-HA epitope (Santa Cruz), anti-GFP, anti-phospho-myosin light chain, anti-total myosin light chain, anti-GAPDH (glyceraldehyde-3-phosphate dehydrogenase) (Cell Signaling Technology); mouse anti-V5 epitope (Life Technologies), were purchased from commercial sources. To detect protein expression in total cell lysates, cells were lysed in Pierce® IP lysis buffer with 25 mM Tris-HCl pH 7.4, 150 mM NaCl, 1% NP-40, 1 mM EDTA, 5% glycerol, followed by SDS-polyacrylamide electrophoresis and immunoblot.

Orai1 [3] = biological target: T1, Orai1; assay: Fluorescent (confocal) microscopy of Orai1 localization; format: cell-based; set-up: expressed in transfected cells; details: ASMC treated with SPLUNC1
Experimental: Fluorescent microscopy: Human ASMs were grown on 25-mm glass coverslips for fluorescent imaging. Cells were transfected with the indicated fluorescent-labeled proteins. At 24 h post-transfection, cells were incubated with or without SPLUNC1 for 4 h, followed by methanol fixation and DAPI (1 μg/ml) staining for nucleus. For live cell imaging, cells were grown on 35-mm glass-bottom dishes (In Vivo Scientific) and transfected with the YFP-Orai1. At 24 h post-transfection, cells were incubated with SPLUNC1 and images were taken at indicated time point. All images were taken with a Leica TCS SP8 63× oil lens using the Leica Application Suite X software (Leica).

Orai1 [4] = biological target: T1, Orai1; assay: Co-immunoprecipitation in HEK293T cell lysates (V5-SPLUNC1 / HA-Orai1); format: binding; set-up: expressed in transfected cells; host or cells: HEK293T; details: HEK293T cells cotransfected with V5-SPLUNC1 and HA-Orai1
Experimental: DNA constructs: Yellow fluorescent protein (YFP) tagged human Orai1 and Myc tagged TRPC3 were gifts from Dr. Craig Montell (Addgene plasmid #25902) and Dr. Anjana Rao (Addgene plasmid #19756), respectively. HA tagged human Orai1 was a generous gift from Dr. Patrick G Hogan at La Jolla Institute for Allergy & Immunology. pcDNA3.1(+)-V5-SPLUNC1 was a generous gift from Dr. Colin D Bingle at the University of Sheffield.
For immunoprecipitation, cell lysates were collected at 48 h post-transfection in Pierce® IP lysis buffer in the presence of 1× protease inhibitor cocktail (PIC) (Roche). Cell lysates were pre-cleared with protein A/G agarose beads and then incubated with 1 μg of antibodies against HA (BioLegend) or V5 (Invitrogen) with protein A/G agarose beads on a rotator at 4° C. overnight. After three washes with IP lysis buffer, immunoprecipitated complexes were eluted in sample buffer (50 mM Tris-HCl [pH 6.8], 2% sodium dodecyl sulfate (SDS), 10% glycerol, 5% (v/v) β-mercaptoethanol (BME), 0.1% bromophenol blue) by heating the samples at 95° C. for 5 min, electrophoresed through SDS-polyacrylamide gels, and subjected to immunoblot analysis.

Orai1 [5] = biological target: T1, Orai1; assay: Surface labeling and ground state depletion super resolution microscopy; format: cell-based; set-up: expressed in transfected cells; details: ASMC plasma membranes, after 1 h incubation
Experimental: Surface labeling and super resolution microscopy: Human ASMs were grown on 22×22 mm^2 glass coverslips and transfected with the HA-Orai1. 24 h after transfection, cells were fixed with 4% paraformaldehyde (PFA) in PBS, followed by surface labeling with mouse anti-HA antibody (BioLegend) and Alexa 488 goat anti mouse antibody (Life Technologies) at 4° C. After washing with ice cold PBS for five times, cells were incubated with 5 μM SPLUNC1-DyLight 594 for 1 h at 4° C. prior to imaging.
Prior to mounting, 90 μl of oxygen depleting medium, β-Mercaptoethylamine (MEA) was added to the cavity of depression slides. Coverslips were then mounted on the depression slides and sealed with twinsil (Picodent). Super resolution images were captured with a commercial LEICA GSD super-resolution microscope. Ground state depletion (GSD) was performed using 488 nm and 642 nm m solid-state lasers. Samples were excited using 488 nm and 642 nm lasers and sample acquisition was increased with back-pumping using the 405 nm laser as per the manufacturer's instructions. The microscope was fitted with a 160× oil-immersion objective lens.

ASMC plasma membranes = assay: SPLUNC1 binding to ASMCs after Orai1 shRNA (surface biotinylation, fluorescent SPLUNC1 binding assay); set-up: species or system human; details: Orai1 shRNA knockdown vs scrambled control, 72 h post transfection
Experimental: Short hairpin RNA (shRNA) plasmid against Orai1 and scrambled control shRNA plasmid were purchased from Sigma Aldrich and published previously (Sheridan et al., J. Biol. Chem. 288:33509 (2013)). Transfections of all plasmid DNA and shRNA were performed using Lipofectamine 2000 reagent (Life Technologies) according to the manufacturer's instructions.
Fluorescent SPLUNC1 binding assay: Human ASMCs were transfected with scrambled control shRNA and Orai1 shRNA respectively. 72 h post transfection, cells were treated with or without SPLUNC1-DyLight 633 for 1 h, then washed for 5 times with ice-cold Ringer's solution. ASMC-bounded SPLUNC1-Dylight 633 was detected by fluorescent plate reader (Tecan). Cells were also stained with calcein AM (Life Technologies) as cell number control. Relative fluorescent intensity was calculated by normalizing fluorescent intensity at 658 nm to 526 nm.
Surface biotinylation: hASMCs were treated with or without SPLUNC1 for 4 h. Cells were then washed with prechilled PBS^++ (phosphate buffered saline supplemented with 1 mM CaCl2 and 1 mM MgCl2), and then labeled with 0.5 mg/ml sulfo-NHS-biotin (Thermo) in borate buffer (85 mM NaCl, 4 mM KCl, 15 mM Na2B4O7, pH 9.0) while tumbling gently for 30 min on ice. hASMCs were incubated in PBS^++ buffer supplemented with 10% FBS for 20 min at 4° C. to quench free biotin. […]

T1 sequence (Q96D31 whole entry): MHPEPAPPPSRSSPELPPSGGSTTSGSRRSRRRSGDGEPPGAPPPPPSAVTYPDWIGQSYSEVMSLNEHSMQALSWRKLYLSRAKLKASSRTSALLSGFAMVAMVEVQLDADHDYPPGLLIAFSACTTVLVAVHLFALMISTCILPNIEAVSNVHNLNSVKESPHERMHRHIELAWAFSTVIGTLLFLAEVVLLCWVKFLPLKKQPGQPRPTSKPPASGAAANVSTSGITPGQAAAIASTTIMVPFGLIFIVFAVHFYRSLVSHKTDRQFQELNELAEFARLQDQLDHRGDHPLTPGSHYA

B1: SPLUNC1: Short palate, lung and nasal epithelium clone 1, recombinant full length protein (protein, listed as Homo sapiens)
chain: MFQTGGLIVFYGLLAQTMAQFGGLPVPLDQTLPLNVNPALPLSPTGLAGSLTNALSNGLLSGGLLGILENLPLLDILKPGGGTSGGLLGGLLGKVTSVIPGLNNIIDIKVTDPQLLELGLVQSPDGHRLYVTIPLGIKLQVNTPLVGASLLRLAVKLDITAEILAVRDKQERIHLVLGDCTHSPGSLQISLLDGLGPLPIQGLLDSLTGILNKVLPELVQGNVCPLVNEVLRGLDITLVHDIVNMLIHGLQFVIKV
- decrease of plasma membrane Orai1 levels (Orai1 [1]): ~50%
- MLC phosphorylation [2]: decreased both basal and induced MLC phosphorylation; also recorded: suppressing myosin light chain (MLC) phosphorylation; also recorded: decreases MLC phosphorylation in dose dependent-manners
- cytosolic Orai1 / Orai1 internalization (Orai1 [3]): increased; also recorded: Orai1 is internalized
- co-immunoprecipitation with Orai1 (Orai1 [4]): could be co-immunoprecipitated; also recorded: interacting with Orai1
- co-localization of SPLUNC1 and Orai1 (Orai1 [5]): co-localize in ASMC plasma membranes
- SPLUNC1 binding to ASMC plasma membranes (ASMC plasma membranes): decreased; also recorded: decreases SPLUNC1 binding to the ASMC membrane; also recorded: decreases fluorescent SPLUNC1 binding to ASMCs
